Paper PMC9106921 (Nature immunology, 2022)
No end group written: not given here.

Biological target: T1, recombinant cytoplasmic tail of CD4 (residues 421-458, C422S, C455S) (human, UniProt P01730 421-458, C422S | C455S)
T1 chain (looked up): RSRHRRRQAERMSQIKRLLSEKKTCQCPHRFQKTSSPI
Test: NMR titration

pKa of the pH-dependent disruption of the complex: 4.55 ± 0.1
B1: recombinant Lck (residues 7-35), 15N-labelled (domain or fragment, human, UniProt P06239 7-35, looked up)
chain: SHPEDDWMENIDVCENCHYPIVPLDGKGT
modifications: cysteine pairing not given here; also: 15N isotope labelling
